Consider six molecules from patent US20200332281 (published 2020).

Data set [1] deals with T1, thrombin (UniProt P00734;P00734 P00734:328-363,P00734:364-622). Nature of the data set: SPR; HBS-EP, 150 mM NaCl, pH 7.0. In general terms: Surface plasmon resonance follows binding to a sensor surface in real time, without labels.
The target in data set [2] is T1, thrombin. Kind of data set: SPR; no specific response.

B1: T_apt.4 (= T_beads_re_apt.8) (ssDNA)
DNA: AGCAGCACAGAGGTCAGATGTTGGTGGGGTGGCTTTGGGTATTTACTTGGCCTATGCGTGCTACCGTGAA
The term Kd denotes the equilibrium constant for the complex coming apart. High values mean weaker binding, low ones tighter binding. The molecule B1 came in with a Kd in data set [1] of 81 nM.

B2: T_beads_re_apt.9 (ssDNA)
DNA: AGCAGCACAGAGGTCAGATGGGGGATGGTTAGGGTGGCTTAATATTGACCCCTATGCGTGCTACCGTGAA
As for B2, in data set [2], the binding result is on record as “no binding”.

B3: T_apt.2 (= T_beads_apt.5) (ssDNA)
DNA: AGCAGCACAGAGGTCAGATGGAGTCGGGTGGCTATTGGGTATGGACCGTGCCTATGCGTGCTACCGTGAA
B3: in data set [2], the binding result is reported as “no binding”.

B4: T_apt.3 (= T_beads_apt.1, T_beads_re_apt.7) (ssDNA)
DNA: AGCAGCACAGAGGTCAGATGGATGGTGTAGGTTGGGAGAGGCTCAGTGCCCCTATGCGTGCTACCGTGAA
Molecule B4 gave a Kd in data set [1] of 76 nM.

B5: T_apt.6 (ssDNA)
DNA: AGCAGCACAGAGGTCAGATGGTTGGGTAGGGTTGGATAGGGGCAAGTAGACCTATGCGTGCTACCGTGAA
On to B5, for which, in data set [1], the equilibrium dissociation constant (Kd) was determined as 55 nM.

B6: T_apt.5 (ssDNA)
DNA: AGCAGCACAGAGGTCAGATGGTGGATTTGGGTGGATTGGTATGAACTGACCCTATGCGTGCTACCGTGAA
For B6, in data set [2], the binding result is listed as “no binding”.
